Data on 3 molecules can be found in patent US20080311122A1, “Antagonists of Hmgb1 and/or Rage and Methods of Use Thereof” (Medimmune, LLC, priority 2005, published 2008).

The labels stand for the following.
T1: recombinant HMG1 purified from E. coli as a calmodulin binding protein (CBP) fusion protein (human)
T1 chain: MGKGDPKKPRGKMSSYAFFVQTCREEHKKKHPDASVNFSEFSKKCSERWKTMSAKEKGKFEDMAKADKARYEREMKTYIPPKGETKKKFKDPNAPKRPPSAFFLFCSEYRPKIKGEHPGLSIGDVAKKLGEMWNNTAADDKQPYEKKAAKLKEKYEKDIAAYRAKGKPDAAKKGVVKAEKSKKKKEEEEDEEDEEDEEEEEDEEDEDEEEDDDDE

B1: anti-HMG1 antibody G2 (antibody, V domains shown)
VH: EVQLLESGGGLVQPGGSLRLSCAASGFTFSWYKMQWVRQAPGKGLEWVSGISPSGGSTAYADSVKGRFTISRDNSKNTLYLQMNSLRAEDTAVYYCAKMGLFNTGNSYVDYWGQGTLVTVSS
VL: AQSELTQPPSVSEAPGQRVTISCSGSTSNIGNNAVIWYQQLPGKAPKLLIYYDDLLPSGVSDRFSGSKSGTSGSLAISGLQSEDEADYYCASWDDNLNGPLFGGGTKLTVL
B2: anti-HMG1 antibody S17 (antibody, V domains shown)
VH: EVQLLESGGGLVQPGGSLRLSCAASGFTFSYYDMHWVRQAPGKGLEWVSRISPSGGYTWYADSVKGRFTISRDNSKNTLYLQMNSLRAEDTAVYYCTRGRYTSGWHEYFDPWGQGTLVTVSS
VL: AQDIQMTQSPSSLSASVGDRVTITCRASQSIGTYLNWYQQKPGTAPKVLIYAASSLQSGVPSRFSGSGSGTDFTLTISSLQPEDFSTYYCQQSYNTPRTFGQGTKLEIK
B3: anti-HMG1 antibody G20 (antibody, V domains shown)
VH: EVQLLESGGGLVQPGGSLRLSCAASGFTFSWYDMFWVRQAPGKGLEWVSWISPSGGYTKYADSVKGRFTISRDNSKNTLYLQMNSLRAEDTAMYYCARSGLDYYDSSGYLDAFDIWGQGTMVTVSS
VL: AQDIQMTQSPSSVSASVGDRVTITCRASQDVSIWLAWYQQKPGKAPKLLIFGASRLQSGVPSRFSGSRSGADFTLTIDSVQPEDFASYYCQQADSFPLTFGGGTKVEIK

The assay deals with T1, recombinant HMG1 purified from E. coli …. Put plainly: BIAcore, mAb immobilized, HMG1 injected, steady-state model. The following applies: remark: other sources report otherwise.
As to B1, the Kd (commonly the free concentration of one partner at which half of the binding sites on the other are occupied at equilibrium, for simple one-to-one binding) came out at 101 nM.

For the molecule B2, the dissociation constant (Kd) was found to be 331 nM.

B3: the Kd was 114 nM.
